Experimental data: publication doi:10.1101/2021.08.16.456586
Like-named read-outs stand apart in the source and are kept apart here.

Columns and labels:
[1] = target: Empty HBV Cp183 capsid (Hepatitis B Virus (strain not stated)) (UniProt P03147); test: negative stain TEM, 2D class averages
[2] = target: Empty HBV Cp183 capsid (Hepatitis B Virus (strain not stated)) (UniProt P03147); test: charge detection mass spectrometry
[3] = target: Empty HBV Cp183 capsid (Hepatitis B Virus (strain not stated)) (UniProt P03147); test: charge detection mass spectrometry; remark: listed apart in the source
[4] = target: Empty HBV Cp183 capsid (Hepatitis B Virus (strain not stated)) (UniProt P03147); test: charge detection mass spectrometry; remark: listed apart in the source

UniProt P03147, sequence (P03147 whole entry): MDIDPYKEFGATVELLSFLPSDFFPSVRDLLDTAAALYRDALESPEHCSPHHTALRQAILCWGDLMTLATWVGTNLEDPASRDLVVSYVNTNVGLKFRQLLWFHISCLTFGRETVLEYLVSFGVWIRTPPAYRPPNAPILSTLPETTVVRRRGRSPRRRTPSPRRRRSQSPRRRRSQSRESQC

Work on “Importin β (from UniProt Q14974 1-876) (natural protein)” yielded a percent of empty capsids with externally bound Impβ [1] of 90%, a percent of particles with visible, externally bound Impβ [1] of 48% and a stoichiometry N (Impβ per capsid) [2] of 38. It also gave a stoichiometry N (Impβ per capsid) [3] of 38 and a stoichiometry N (Impβ per capsid) [4] of 64.
